Biological target: human pro-TGF-β1 (C4S, R249A furin-site mutant, N107Q, N147Q), purified (human)
Assay: crystal structure

stoichiometry N: 1 αVβ6 head per pro-TGF-β1 dimer
B1: integrin αVβ6 head (three-domain fragment: αV β-propeller and thigh domains, β6 βI domain) (complex)
chain 1: FNLDVDSPAEYSGPEGSYFGFAVDFFVPSASSRMFLLVGAPKANTTQPGIVEGGQVLKCDWSSTRRCQPIEFDATGNRDYAKDDPLEFKSHQWFGASVRSKQDKILACAPLYHWRTEMKQEREPVGTCFLQDGTKTVEYAPCRSQDIDADGQGFCQGGFSIDFTKADRVLLGGPGSFYWQGQLISDQVAEIVSKYDPNVYSIKYNNQLATRTAQAIFDDSYLGYSVAVGDFNGDGIDDFVSGVPRAARTLGMVYIYDGKNMSSLYNFTGEQMAAYFGFSVAATDINGDDYADVFIGAPLFMDRGSDGKLQEVGQVSVSLQRASGDFQTTKLNGFEVFARFGSAIAPLGDLDQDGFNDIAIAAPYGGEDKKGIVYIFNGRSTGLNAVPSQILEGQWAARSGCPPSFGYSMKGATDIDKNGYPDLIVGAFGVDRAILYRARPVITVNAGLEVYPSILNQDNKTCSLPGTALKVSCFNVRFCLKADGKGVLPRKLNFQVELLLDKLKQKGAIRRALFLYSRSPSHSKNMTISRGGLMQCEELIAYLRDESEFRDKLTPITIFMEYRLDYRTAADTTGLQPILNQFTPANISRQAHILLD
chain 2: TEDYPVDLYYLMDLSASMDDDLNTIKELGSRLSKEMSKLTSNFRLGFGSFVEKPVSPFVKTTPEEIANPCSSIPYFCLPTFGFKHILPLTNDAERFNEIVKNQKISANIDTPEGGFDAIMQAAVCKEKIGWRNDSLHLLVFVSDADSHFGMDSKLAGIVCPNDGLCHLDSKNEYSMSTVLEYPTIGQLIDKLVQNNVLLIFAVTQEQVHLYENYAKLIPGATVGLLQKDSGNILQLIISAYEELRSEVELE
